The numbers were not newly measured in PMC9782320, which cites them from elsewhere.

What is called Kd is the concentration at which binding is half-saturated.

For the series, the target named is plasmin (Homo sapiens) (UniProt P00747).
Chain of UniProt P00747 (P00747 581-810): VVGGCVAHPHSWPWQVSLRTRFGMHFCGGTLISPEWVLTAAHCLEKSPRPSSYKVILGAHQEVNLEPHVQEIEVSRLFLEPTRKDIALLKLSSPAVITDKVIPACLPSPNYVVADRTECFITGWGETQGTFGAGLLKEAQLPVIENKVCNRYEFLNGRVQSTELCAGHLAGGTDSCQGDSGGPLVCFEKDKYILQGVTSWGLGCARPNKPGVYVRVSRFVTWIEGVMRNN

Consider staphylokinase (from UniProt P68801), for which the Kd is 10 nM.
